Laboratory results reported in paper PMC5817203, “Characterization of feedback-resistant mevalonate kinases from the methanogenic archaeons Methanosaeta concilii and Methanocella paludicola” (Microbiology, 2017).

Legend:
[1] = target: mevalonate kinase from Methanosaeta concilii GP6 (Methanosaeta concilii GP6); assay: SEC; gel filtration of the purified enzyme; apparent mass compared with the mass calculated from the sequence; column and buffer not told
[2] = target: the molecule itself; assay: as above

stoichiometry N [1] | Molecule | stoichiometry N [2]
4 | mevalonate kinase from Methanosaeta concilii GP6 (enzyme) | –
– | mevalonate kinase from Methanocella paludicola SANAE (enzyme, UniProt D1YZ39 1-299, looked up, codon-optimised synthetic gene, coding part cloned NdeI/EcoRI into pET-28b(+); No tag removal is described; also called MVK^mpd; mpd; source: E. coli BL21 (DE3), pET-28b(+), purified (His-Trap HP, dialysis)) MTMCSAPGKVFLFGEHAVVYGKRAIACAIDLRTTVEVSRKSRGVHIHSAFKDEPDKNLYIKTAVKRMQKCADIRNVNIAVSSRIPVASGLGSSAAVTVATIGALNEEFSAGLSKKDIAYMAYQTELEVQGAASPTDTFVSTMGGTVVVPDMRTLPPITCGIVVGHTGISKSTSRMVSRVRTLKEKYPDVIDGIMDSIGDISARGEDLIKQNDYRSIGELMNVNQGLLDALGITIPELSLQIYAARQHGAYGAKITGAGGGGCMVAICDDKNCKEIATAIGRSYGDSFISKPTAEGIFIQ | 2
